# Experimental data: US20230355708A1 (published 2023)
# Read-outs that look alike come from different tables or passages of the source.
# B1: CVN (other)
# chain: LGKFSQTCYNSAIQGSVLTSTCERTNGGYNTSSIDLNSVIENVDGSLKWQPSNFIETCRNTQLAGSSELAAECKTRAQQFVSTKINLDDHIANIDGTLKYE
# Experiments:
# Yu2 gp120 [1] = experiment: SPR
# Yu2 gp120 [2] = experiment: SPR; remark: listed apart in the source
binder,measurement,setting,value
B1,Kd,Yu2 gp120 [1],622 pM
same,Kd,Yu2 gp120 [2],622 pM
